Data on two proteins can be found in PMC5675407, “Sugar analog synthesis by in vitro biocatalytic cascade: A comparison of alternative enzyme complements for dihydroxyacetone phosphate production as a precursor to rare chiral sugar synthesis” (PLoS ONE, 2017).

Experiment in all cases: purified protein
Substrate in data set [1]: Nc1ncnc2c1ncn2[C@@H]1O[C@H](COP(=O)(O)OP(=O)(O)OP(=O)(O)O)[C@@H](O)[C@H]1O
It is filed as biochemical, Clostridium beijerinckii. The conditions noted are these: glycerol in excess, 10 mM MgCl2, 50 mM NaHCO3 pH 9.2, room temperature. An excerpt: (§1) HPLC of ADP and ATP on GlpKCb

Substrate in data set [2]: OCC(O)CO
It is filed as biochemical, Clostridium beijerinckii. The conditions noted are these: ATP in excess, 10 mM MgCl2, 50 mM NaHCO3 pH 9.2, room temperature.
Source text: as §1

Substrate in data set [3]: CC(=O)OP(=O)(O)O
It is filed as biochemical, Mycolicibacterium smegmatis. The conditions noted are these: ADP in excess, Mg2+, room temperature, buffer as for glycerol kinase (pH 9.2). An excerpt:
(§2) HPLC of ADP and ATP on AceKMs

Substrate in data set [4]: Nc1ncnc2c1ncn2[C@@H]1O[C@H](COP(=O)(O)OP(=O)(O)O)[C@@H](O)[C@H]1O
The data set is classed as biochemical, Mycolicibacterium smegmatis. The conditions noted are these: acetyl phosphate in excess, Mg2+, room temperature, buffer as for glycerol kinase (pH 9.2).
Source text: as §2

B1: GlpKCb (Clostridium beijerinckii NCIMB 8052) (protein)
chain: MKKYILALDQGTTSSRAIIFDKEQNILGVSQKEFTQIYPNQGWVEHNPLEIWASQYGVLQEVIAKTNITQEEVAAIGITNQRETTIVWDKNTGEPVYNAIVWQCRRTAGIIEELKLDKEFSEYVKENTGLLLDAYFSATKIKWILDNVEGARERAEKGELLFGTVDTWLVWKLTNGKVHVTDYTNASRTMLYNIKELRWDERILEKLNIPKSMLPEVKNSSEVYGYTNLGGTGGVRVPIAGMAGDQQCALFGQTCFEEGSVKNTYGTGCFLLMNTGEKMIHSKNGLVSTIAVGIDGKVQYALEGSVFVGGAVIQWIRDELKLVTDAADTEYFAQKVEDNGGVYVVPAFTGLGAPYWDMYARGAIFGLTRGANRNHIIRAALESIAYQSKDLIDAMQEDAGCKLTRLKVDGGASRNNLLMQFQADITGAEVVRPIITETTALGAAYLAGLAVGFWKSKEEIAEKWAVSQSYSPNLAEEKKEKLYKGWKKAVKRAEGWEEE
notes: recombinant, His-tagged (pDEST17 or pETCC2), E. coli, Ni and size exclusion purified
As for B1, in the data set “purified protein [1]”, the Michaelis constant (Km) – broadly, the substrate concentration at which the rate is half of its maximum – is 135 ± 16 µM; the kcat (in general, the maximal rate divided by the concentration of active sites) stood at 93 s⁻¹; the specificity constant (kcat/Km) (in general, the turnover number divided by the Michaelis constant) was 690000 M⁻¹ s⁻¹. Further, in “purified protein [2]”, the Michaelis-Menten constant (Km) was 356 ± 27 µM, the catalytic constant (kcat) stood at 93 s⁻¹ and the kcat/Km is 260000 M⁻¹ s⁻¹.

B2: AceKMs (Mycolicibacterium smegmatis MC2 155) (protein)
chain: MTVLVVNSGSSSLKYAVVRPASGEFLADGIIEEIGSGAVPDHDAALRAAFDELAAAGLHLEDLDLKAVGHRMVHGGKTFYKPSVVDDELIAKARELSPLAPLHNPPAIKGIEVARKLLPDLPHIAVFDTAFFHDLPAPASTYAIDRELAETWHIKRYGFHGTSHEYVSQQAAIFLDRPLESLNQIVLHLGNGASASAVAGGKAVDTSMGLTPMEGLVMGTRSGDIDPGVIMYLWRTAGMSVDDIESMLNRRSGVLGLGGASDFRKLRELIESGDEHAKLAYDVYIHRLRKYIGAYMAVLGRTDVISFTAGVGENVPPVRRDALAGLGGLGIEIDDALNSAKSDEPRLISTPDSRVTVLVVPTNEELAIARACVGVV
notes: recombinant, His-tagged (pDEST17 or pETCC2), E. coli
As for B2, in “purified protein [3]”, the Michaelis-Menten constant (Km) turned out to be 390 ± 8 µM, the kcat was 1103 s⁻¹ and the kcat/Km was determined as 2.8e+06 M⁻¹ s⁻¹. Moreover, in the data set “purified protein [4]”, the Km was determined as 113 ± 9 µM, the kcat turned out to be 1100 s⁻¹ and the kcat/Km was determined as 9.8e+06 M⁻¹ s⁻¹.
